{"source": "the supplement of paper PMC12636428"}
{"tested_on": "Saccharomyces cerevisiae", "assay": "transcriptional activation domain activity (GFP:mCherry ratio, weighted mean of sorted bins, harmonized to initial dataset scale) (arbitrary fluorescence ratio units); higher = stronger transcriptional activation", "settings": "beta-estradiol 1 µM; induction time 4 h", "method_in_brief": "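Yeast diploids with a GFP reporter received barcoded protein tiles, fused to an estradiol-inducible synthetic transcription factor, at the URA3 locus. Cultures were diluted 1:5 into SC holding 1 uM beta-estradiol, incubated 4 hours at 30 °C, sorted into 8 bins on GFP:mCherry ratio, and sequenced for barcodes, with tiles under 50 reads discarded. Activation activity values come from the read-weighted mean of bin median fluorescence, averaged across barcodes and linearly placed on the initial dataset scale.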"}
{"sequence": "EVIAGQQYAGLSFFAFVLRQDDIKSLDLILAEYFKVPTALDIIRSSLYLAIYS", "transcriptional activation domain activity": 48600}
{"sequence": "ADEEDLSSKPRCQRCRKSKKGCDRQRPCGRCKDAGIGIEGCVSEDEGNGRKGR", "transcriptional activation domain activity": "< 6570"}
{"sequence": "QGIGLMYLVLVMLCLASLLITNLHFLTVYRSTLIHSYMSQLIVFSFLLPLSLV", "transcriptional activation domain activity": 44700}
{"sequence": "STVHNLVELMPLQQLCGFCCFSMRFVVFLDLLSTVVAPVIVVYIGYLIYILAY", "transcriptional activation domain activity": 56100}
{"sequence": "APQPVEATAIDDGFQEAKRGRGRKKAKEEVVASAPAAPADAPQVAKAKVVASA", "transcriptional activation domain activity": 23300}
{"sequence": "MSLFSPCGETPLFLFPLFALTGLAPVLPPGSPLFFYLTLPLSFSFFHFFIFFF", "transcriptional activation domain activity": 79500}
{"sequence": "MINKKTNPCKILFDPFSSFLFGNLILLSLFLFVDVIFSLPCFLYVCFVFFPSL", "transcriptional activation domain activity": 69200}
{"sequence": "MWWRADGHYLNPLSQIFFSCEFWFFLLLFQMGDGFAFFFFLSIGLVTSFFFFF", "transcriptional activation domain activity": 35400}
{"sequence": "QPQSPYQQAVLPYATIPNSNFQPSSFPVMAVMPPEVQFDGSFLNTLHPHTELP", "transcriptional activation domain activity": 34400}
{"sequence": "TPVYIGPLDGGAGDAQHGRKGGESRFQITPRKTVRLGEDGKGRKVSVEQRIVC", "transcriptional activation domain activity": 49400}
{"sequence": "RADARSTTRPDGSADESFDALEEEVEEYYIYVHYKTITQPSKALNLVALGRLQ", "transcriptional activation domain activity": 52000}
{"sequence": "QGFMNVTFTNGRKYEALSKQLIFIVHAIFMAANDHVGYILLRALRVYMELDVY", "transcriptional activation domain activity": 69900}
{"sequence": "MDPQIDSQTPKRPSRGACRECASSKVKCLPQSSTNDGKCERCQLRGKACERRS", "transcriptional activation domain activity": 22700}
{"sequence": "FLLCTFFAIFAFLLCYLLAFFSFHVFLYDDSLFLFYYCMSAACTFFCCMFLEF", "transcriptional activation domain activity": 39600}
{"sequence": "LARFACLTCDHNWLEDLIFGATDAIEEAFFANDITCLVFWLYNTTLWLHLMQC", "transcriptional activation domain activity": 51400}
{"sequence": "DGAGAKDDEEDAGRMRTRGNGKRKGKGRAQDEAEAEAERVRAAEAFARRGAAK", "transcriptional activation domain activity": 43300}
{"sequence": "LSFLLSFPLPLIPHVLPSLFPCPLFLPLFPPSLPLSPFPPLPLFPPSPFFPLS", "transcriptional activation domain activity": 62300}
{"sequence": "SVMKTLLDERRTSGTQPTTAPVAAEEPRLENVALENFVSIGWKLLDDSELGWY", "transcriptional activation domain activity": 71200}
{"sequence": "HGEERGWIYLVQYRGIAWLLRRLACCRFEILAIFHLSNLNHPVNVLADSYDRE", "transcriptional activation domain activity": 19700}
{"sequence": "MRFPPLLFSFFLFFLFFFHLFLFLFHNLFFFYQSFFSSQPLFSFSLSFLSSSL", "transcriptional activation domain activity": 42800}
{"sequence": "AILDLAFYIRWQNNNYHLAPSIPLSKMYSNSLLVVLNARIKIVGGRNEYKTNS", "transcriptional activation domain activity": 31900}
{"sequence": "SWFDIDEENGDVISRLEWYHLVQMSLVHATILIWWTTGKVLININVSMAVRCG", "transcriptional activation domain activity": 54100}
{"sequence": "GDEKKRNRERSREGGHRERSRSPDRERRSRRKRSHSRDRSSTRRRHKRHRSRS", "transcriptional activation domain activity": 30400}
{"sequence": "RKHMMAFYFDDILEKVVGTATMDERGVFIRDNERGILWCLLVFRMLCWLILHD", "transcriptional activation domain activity": 58000}
{"sequence": "HLYQISLLLSIFVFFSQGLCRFLYYLPPVPFLTHISSTKLWVWIGLVACLTLK", "transcriptional activation domain activity": 65800}
{"sequence": "FGASLPVFWKVIFHHCQLYFLVIVSTKAILVFTIYALEFPYSVMFIICHLVLV", "transcriptional activation domain activity": 37700}
{"sequence": "MADTTDPPAPRKRGRPPKNKEGGATAKPVTLGPDGLPRKRGRPRKNPVVEVAT", "transcriptional activation domain activity": 20300}
{"sequence": "IVVYGANGGNLGENCNREFSERCVPVFRARATVFAELTWLILVSAWEFKSIRR", "transcriptional activation domain activity": 51000}
{"sequence": "MTHILGYIHRSCYFLFLRSFLNFDISCCWITLSWLLCRSILYYCRPMVKILSS", "transcriptional activation domain activity": 66300}
{"sequence": "SPTSAFGTASAPAATSAFGAPATGAAGGGGGGFSAFAGKPAAFGGAAPAPAPA", "transcriptional activation domain activity": 46100}
{"sequence": "IRSWGDAVLAHSPLFDHVDGDAACPCSRCCSGVIAWSFWERVIRIVPMHLFSA", "transcriptional activation domain activity": 64500}
{"sequence": "KLLRWYIYPCAYRLGTVCCLFLSEIYNERHRKLSYAVMEPDTWPIMFTDKLAR", "transcriptional activation domain activity": 74900}
{"sequence": "QSLENQTTETIDVSPDKHRLLIGRGGETRRAIESKFKVQLDIPKQTATGAARN", "transcriptional activation domain activity": 64100}
{"sequence": "TSCFSFLVFSFIFLSLGIMMWSLGQELLWYFVFFCLVWIFLLVVCLFIIEYSE", "transcriptional activation domain activity": 32500}
{"sequence": "PFGICGSFLGLFFCVMGLIAHMPSIWLVRGGNHSYTSLPGNSWLCVIFCLFSC", "transcriptional activation domain activity": 49200}
{"sequence": "RPWRWSFGVYVLCRTLALGGIISAFVGFSPFNEFHCDVWLRFLLVFSWFAIAS", "transcriptional activation domain activity": 66600}
{"sequence": "RASHNASGFPNFLDTSCSSSFDDHFIFTNNLPFLNNNSINNNHSHNSSHNNNS", "transcriptional activation domain activity": 56800}
